In patent US20140348902A1 (University of Texas, published 2014):

Key:
[1] = molecular target: T1, HLA-A2 (HLA-A*0201) on TAP-deficient T2 cells (human); assay: T2 cell peptide-binding assay, flow cytometry for HLA-A2
T1 construct: also called MHC I (HLA-A2)
Procedure: (§1) TAP-deficient T2 cells were incubated with 20 μg/ml of peptides and 3 μg/ml of β₂-microglobulin (Sigma-Aldrich, Cat # M4890) for 24 hours at 37° C. and 5% CO₂ in air. […] The binding affinity of the peptide to HLA-A2 (T2 binding index) was quantified as follows: (Mean fluorescence intensity [MFI] of HLA-A2 with peptide—MFI of HLA-A2 without peptide)/(MFI of HLA-A2 without peptide).

[2] = molecular target: T1, HLA-A2 (HLA-A*0201) on TAP-deficient T2 …; assay: T2 binding assay, flow cytometry for HLA-A2
Procedure: as §1

Binder: LLPIMWQL (Synthetic peptide) [TCL1 71-78 peptide (LLPIMWQL)]
- binding result [1]: binds

B1: TCL1 65-79 peptide (TQIGPSLLPIMWQLY) (peptide)
peptide: TQIGPSLLPIMWQLY
notes: Synthetic peptide (Sigma-Aldrich, >70% purity); also called P17
- binding result [2]: binds
